Test results: the RNAGym collection of RNA variant scans (doi:10.1093/molbev/msab373)

B1: Azoarcus group I ribozyme (parent)
chain: GUGCCUUGCGCCGGGAAACCACGCAAGGGAUGGUGUCAAAUUCGGCGAAACCUAAGCGCCCGCCCGGGCGUAUGGCAACGCCGAGCCAAGCUUCGGCGCCUGCGCCGAUGAAGGUGUAGAGACUAGACGGCACCCACCUAAGGCAAACGCUAUGGUGAAGGCAUAGUCCAGGGAGUGGCGAAAGUCACACAAACCGG

Variants of: B1
Experiment: reverse-splicing fitness (ratio to wild type); higher = more active; in vitro selection; Mg2+ level not given
Summary of the method: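 An in vitro group I ribozyme library with randomized positions was T7-transcribed and gel-purified. In triplicate, 10 pmol RNA in EPPS pH 7.5 was reacted with 50 pmoles of a 30-nt RNA substrate for 1 h at 37 °C across several added MgCl2 levels (1–48 mM), then stopped with EDTA. Products were reverse transcribed from a substrate-complementary primer, PCR-amplified and sequenced (HiSeq 4000). Fitness is a variant's read proportion after selection over that before, normalised to wild type.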

In order of rising reverse-splicing fitness:
1. GUGCCUUGCGCCGGGAAACCACGCAAGGGAUGGUGUCAAAUUCGGCGAAACCUAAGCGCCCGCCCGGGCGUAUGGCAACGCAGAGCCAAGCUUCGGCGCCUGCGCCGAUGAAGGUGUAGGGACUAGACGGCACCCACCUAAGGCUAACGAUAUGGUGAAGGCAUAGUCGAGGGAGGGGCGAAAGUCACACAAACCGG [C82A A120G A145U C150A C169G U176G]  0.00358
2. GUGCCUUGCGCCGGGAAACCACGCAAGGGAUGGUGUCAAAUUCGGCGAAACCUAAGCGCCCGCCCGGGCGUAUGGCAACGCAGAGCCAAGCUUCGGCGCCUGCGCCGAUGAAGGUGUAGGGACUAGACGGCACCCACCUAAGGCGAACGCUAUGGUGAAGGCAUAGUCAAGGGAGGGGCGAAAGUCACACAAACCGG [C82A A120G A145G C169A U176G]  0.00382
3. GUGCCUUGCGCCGGGAAACCACGCAAGGGAUGGUGUCAAAUUCGGCGAAACCUAAGCGCCCGCCCGGGCGUAUGGCAACGCAGAGCCAAGCUUCGGCGCCUGCGCCGAUGAAGGUGUAGGGACUAGACGGCACCCACCUAAGGCUAACGAUAUGGUGAAGGCAUAGUCUAGGGAGGGGCGAAAGUCACACAAACCGG [C82A A120G A145U C150A C169U U176G]  0.00431
4. GUGCCUUGCGCCGGGAAACCACGCAAGGGAUGGUGUCAAAUUCGGCGAAACCUAAGCGCCCGCCCGGGCGUAUGGCAACGCAGAGCCAAGCUUCGGCGCCUGCGCCGAUGAAGGUGUAGGGACUAGACGGCACCCACCUAAGGCUAACGAUAUGGUGAAGGCAUAGUCCAGGGAGGGGCGAAAGUCACACAAACCGG [C82A A120G A145U C150A U176G]  0.00503
5. GUGCCUUGCGCCGGGAAACCACGCAAGGGAUGGUGUCAAAUUCGGCGAAACCUAAGCGCCCGCCCGGGCGUAUGGCAACGCAGAGCCAAGCUUCGGCGCCUGCGCCGAUGAAGGUGUAGGGACUAGACGGCACCCACCUAAGGCGAACGCUAUGGUGAAGGCAUAGUCCAGGGAGGGGCGAAAGUCACACAAACCGG [C82A A120G A145G U176G]  0.00561
6. GUGCCUUGCGCCGGGAAACCACGCAAGGGAUGGUGUCAAAUUCGGCGAAACCUAAGCGCCCGCCCGGGCGUAUGGCAACGCAGAGCCAAGCUUCGGCGCCUGCGCCGAUGAAGGUGUAGGGACUAGACGGCACCCACCUAAGGCUAACGAUAUGGUGAAGGCAUAGUCCAGGGAGUGGCGAAAGUCACACAAACCGG [C82A A120G A145U C150A]  0.00826
7. GUGCCUUGCGCCGGGAAACCACGCAAGGGAUGGUGUCAAAUUCGGCGAAACCUAAGCGCCCGCCCGGGCGUAUGGCAACGCAGAGCCAAGCUUCGGCGCCUGCGCCGAUGAAGGUGUAGGGACUAGACGGCACCCACCUAAGGCUAACGAUAUGGUGAAGGCAUAGUCCAGGGAGAGGCGAAAGUCACACAAACCGG [C82A A120G A145U C150A U176A]  0.0108
8. GUGCCUUGCGCCGGGAAACCACGCAAGGGAUGGUGUCAAAUUCGGCGAAACCUAAGCGCCCGCCCGGGCGUAUGGCAACGCAGAGCCAAGCUUCGGCGCCUGCGCCGAUGAAGGUGUAGGGACUAGACGGCACCCACCUAAGGCUAACGAUAUGGUGAAGGCAUAGUCCAGGGAGCGGCGAAAGUCACACAAACCGG [C82A A120G A145U C150A U176C]  0.0131
9. GUGCCUUGCGCCGGGAAACCACGCAAGGGAUGGUGUCAAAUUCGGCGAAACCUAAGCGCCCGCCCGGGCGUAUGGCAACGCAGAGCCAAGCUUCGGCGCCUGCGCCGAUGAAGGUGUAGGGACUAGACGGCACCCACCUAAGGCGAACGCUAUGGUGAAGGCAUAGUCCAGGGAGAGGCGAAAGUCACACAAACCGG [C82A A120G A145G U176A]  0.0143
10. GUGCCUUGCGCCGGGAAACCACGCAAGGGAUGGUGUCAAAUUCGGCGAAACCUAAGCGCCCGCCCGGGCGUAUGGCAACGCAGAGCCAAGCUUCGGCGCCUGCGCCGAUGAAGGUGUAGGGACUAGACGGCACCCACCUAAGGCUAACGAUAUGGUGAAGGCAUAGUCGAGGGAGCGGCGAAAGUCACACAAACCGG [C82A A120G A145U C150A C169G U176C]  0.0154
11. GUGCCUUGCGCCGGGAAACCACGCAAGGGAUGGUGUCAAAUUCGGCGAAACCUAAGCGCCCGCCCGGGCGUAUGGCAACGCAGAGCCAAGCUUCGGCGCCUGCGCCGAUGAAGGUGUAGGGACUAGACGGCACCCACCUAAGGCUAACGAUAUGGUGAAGGCAUAGUCUAGGGAGCGGCGAAAGUCACACAAACCGG [C82A A120G A145U C150A C169U U176C]  0.0164
12. GUGCCUUGCGCCGGGAAACCACGCAAGGGAUGGUGUCAAAUUCGGCGAAACCUAAGCGCCCGCCCGGGCGUAUGGCAACGCAGAGCCAAGCUUCGGCGCCUGCGCCGAUGAAGGUGUAGGGACUAGACGGCACCCACCUAAGGCUAACGAUAUGGUGAAGGCAUAGUCUAGGGAGAGGCGAAAGUCACACAAACCGG [C82A A120G A145U C150A C169U U176A]  0.0207
13. GUGCCUUGCGCCGGGAAACCACGCAAGGGAUGGUGUCAAAUUCGGCGAAACCUAAGCGCCCGCCCGGGCGUAUGGCAACGCAGAGCCAAGCUUCGGCGCCUGCGCCGAUGAAGGUGUAGGGACUAGACGGCACCCACCUAAGGCGAACGCUAUGGUGAAGGCAUAGUCCAGGGAGCGGCGAAAGUCACACAAACCGG [C82A A120G A145G U176C]  0.021
14. GUGCCUUGCGCCGGGAAACCACGCAAGGGAUGGUGUCAAAUUCGGCGAAACCUAAGCGCCCGCCCGGGCGUAUGGCAACGCAGAGCCAAGCUUCGGCGCCUGCGCCGAUGAAGGUGUAGGGACUAGACGGCACCCACCUAAGGCUAACGCUAUGGUGAAGGCAUAGUCCAGGGAGUGGCGAAAGUCACACAAACCGG [C82A A120G A145U]  0.0219
15. GUGCCUUGCGCCGGGAAACCACGCAAGGGAUGGUGUCAAAUUCGGCGAAACCUAAGCGCCCGCCCGGGCGUAUGGCAACGCAGAGCCAAGCUUCGGCGCCUGCGCCGAUGAAGGUGUAGGGACUAGACGGCACCCACCUAAGGCGAACGCUAUGGUGAAGGCAUAGUCAAGGGAGCGGCGAAAGUCACACAAACCGG [C82A A120G A145G C169A U176C]  0.0273
